In patent EP4725969A1 (Latticon (Suzhou) Biopharmaceuticals Co., Ltd., dated 2024):
Positions count from the first letter of the chain named. Like-named read-outs stand apart in the source and are kept apart here.

What was measured:
[1] = molecular target: T1, recombinant human HER2 extracellular domain protein (human, UniProt P04626 23-652); test: BLI, Protein A capture
T1 construct: range 23-652; Range is printed for the immunogen/panning protein; also called ErbB2; recombinant HER2 protein

[2] = molecular target: T1, recombinant human HER2 extracellular …; test: BLI, Protein A capture; remark: listed apart in the source

B1: Hu2117HK-Mu03 (Fc fusion)
scFv: EVQLVESGGGLVQPGGSLRLSCAASGFTYSSYGMSWVRQAPGKGLEWVASISGGGSYTKYPDSVKGRFTISRDNSKNTLYLQMNSLRAEDTAVYYCARDYAGFFDVWGQGTLVTVSSGGGGSGGGGSGGGGSDVQMTQSPSSLSASVGDRVTITCRSSQSLVHSNGNTYLHWYQQKPGKAPKLLIYKVSNRFSGVPSRFSGSGSGTDFTLTISSLQPEDFATYFCSQSTHVPYTFGQGTKVEIK
notes: scFv-hIgG1 Fc; not shown: human IgG1 Fc
[1]
  Kd: 8.69 nM
  koff: 0.00071 s⁻¹
  kon: 81600 M⁻¹ s⁻¹

B2: Hu2117HK-Mu46 (Fc fusion)
scFv: B1 scFv with A101N, V134I
notes: as for B1
[1]
  Kd: 10.3 nM
  koff: 0.000794 s⁻¹
  kon: 77400 M⁻¹ s⁻¹

B3: Hu2117HK-Mu05 (Fc fusion)
scFv: B1 scFv with Y29F, V134I
notes: as for B1
[1]
  Kd: 6.76 nM
  koff: 0.000529 s⁻¹
  kon: 78300 M⁻¹ s⁻¹

B4: Hu2117HK-Mu22 (Fc fusion, name in Kabat numbering)
scFv: B1 scFv with V134I, N165V
notes: as for B1
[1]
  Kd: 13.4 nM
  koff: 0.00059 s⁻¹
  kon: 43900 M⁻¹ s⁻¹

B5: Hu2117HK-Mu36 (Fc fusion, name in Kabat numbering)
scFv: B1 scFv with V134I, S226M
notes: as for B1
[1]
  Kd: 31.4 nM
  koff: 0.00198 s⁻¹
  kon: 63200 M⁻¹ s⁻¹

B6: Hu2117HK-Mu08 (Fc fusion)
scFv: B1 scFv with P61A, V134I
notes: as for B1
[1]
  Kd: 6.65 nM
  koff: 0.000495 s⁻¹
  kon: 74500 M⁻¹ s⁻¹

B7: Hu2117HK-Mu13 (Fc fusion)
scFv: B1 scFv with V134I, F224Y
notes: scFv-hIgG1 Fc; also called Hu2117HK-Mul3; not shown: human IgG1 Fc
[1]
  Kd: 6.05 nM
  koff: 0.000484 s⁻¹
  kon: 80100 M⁻¹ s⁻¹

B8: Hu2117HK-Mu43 (Fc fusion, name in Kabat numbering)
scFv: B1 scFv with A101D, V134I
notes: as for B1
[1]
  Kd: 56.7 nM
  koff: 0.00406 s⁻¹
  kon: 71700 M⁻¹ s⁻¹

B9: Hu2117HK-Mu29 (Fc fusion)
scFv: B1 scFv with V134I, V162L
notes: as for B1
[1]
  Kd: 7.62 nM
  koff: 0.000668 s⁻¹
  kon: 87700 M⁻¹ s⁻¹

B10: Hu2117HK-Mu40 (Fc fusion)
scFv: B1 scFv with S31D, V134I
notes: as for B1
[1]
  Kd: 11.9 nM
  koff: 0.000867 s⁻¹
  kon: 72700 M⁻¹ s⁻¹

B11: Hu2117HK-Mu12 (Fc fusion)
scFv: B1 scFv with V134I, F192P
notes: as for B1
[1]
  Kd: 6.4 nM
  koff: 0.000453 s⁻¹
  kon: 70800 M⁻¹ s⁻¹

B12: Hu2117HK-Mu44 (Fc fusion, name in Kabat numbering)
scFv: B1 scFv with A101E, V134I
notes: as for B1
[1]
  Kd: 42.5 nM
  koff: 0.0034 s⁻¹
  kon: 80000 M⁻¹ s⁻¹

B13: Hu2117HK-Mu47 (Fc fusion, name in Kabat numbering)
scFv: B1 scFv with A101Q, V134I
notes: as for B1
[1]
  Kd: 15.3 nM
  koff: 0.000828 s⁻¹
  kon: 54300 M⁻¹ s⁻¹

B14: Hu2117HK-Mu39 (Fc fusion)
scFv: B1 scFv with S31N, V134I
notes: as for B1
[1]
  Kd: 12.3 nM
  koff: 0.0012 s⁻¹
  kon: 97700 M⁻¹ s⁻¹

B15: Hu2117HK-Mu34 (Fc fusion)
scFv: B1 scFv with V134I, S226Q
notes: as for B1
[1]
  Kd: 12.6 nM
  koff: 0.00117 s⁻¹
  kon: 93500 M⁻¹ s⁻¹

B16: Hu2117HK-Mu07 (Fc fusion, name in Kabat numbering)
scFv: B1 scFv with K59Y, V134I
notes: as for B1
[1]
  Kd: 11.7 nM
  koff: 0.000465 s⁻¹
  kon: 39800 M⁻¹ s⁻¹

B17: Hu2117HK-Mu14 (Fc fusion)
scFv: B1 scFv with D62G, V134I
notes: as for B1
[1]
  Kd: 7.16 nM
  koff: 0.000624 s⁻¹
  kon: 87200 M⁻¹ s⁻¹

B18: Hu2117HK-Mu41 (Fc fusion)
scFv: B1 scFv with S56N, T58A, V134I
notes: as for B1
[1]
  Kd: 9.66 nM
  koff: 0.000603 s⁻¹
  kon: 62400 M⁻¹ s⁻¹

B19: Hu2117HK-Mu28 (Fc fusion)
scFv: B1 scFv with V134I, G166T
notes: as for B1
[1]
  Kd: 7.15 nM
  koff: 0.000592 s⁻¹
  kon: 82800 M⁻¹ s⁻¹

B20: Hu2117HK-Mu23 (Fc fusion)
scFv: B1 scFv with V134I, G166A
notes: as for B1
[1]
  Kd: 6.67 nM
  koff: 0.000542 s⁻¹
  kon: 81200 M⁻¹ s⁻¹

B21: Hu2117HK-Mu04 (Fc fusion)
scFv: B1 scFv with V134I, M136L
notes: as for B1
[1]
  Kd: 9.88 nM
  koff: 0.000895 s⁻¹
  kon: 90600 M⁻¹ s⁻¹

B22: Hu2117HK-Mu17 (Fc fusion, name in Kabat numbering)
scFv: B1 scFv with V134I, N165I
notes: as for B1
[1]
  Kd: 14.9 nM
  koff: 0.000738 s⁻¹
  kon: 49500 M⁻¹ s⁻¹

B23: Hu2117HK-Mu24 (Fc fusion)
scFv: B1 scFv with V134I, G166I
notes: as for B1
[1]
  Kd: 6.65 nM
  koff: 0.000423 s⁻¹
  kon: 63700 M⁻¹ s⁻¹

B24: Hu2117HK-Mu18 (Fc fusion, name in Kabat numbering)
scFv: B1 scFv with V134I, N165L
notes: as for B1
[1]
  Kd: 11.4 nM
  koff: 0.000483 s⁻¹
  kon: 42600 M⁻¹ s⁻¹

B25: Hu2117HK-Mu20 (Fc fusion, name in Kabat numbering)
scFv: B1 scFv with V134I, N165S
notes: as for B1
[1]
  Kd: 13.3 nM
  koff: 0.000616 s⁻¹
  kon: 46500 M⁻¹ s⁻¹

B26: Hu2117HK-Mu30 (Fc fusion, not shown: a dimerising Fc or GST; small tags and cut ends)
scFv: B1 scFv with V134I, H163D
notes: scFv-hIgG1 Fc
[1]
  Kd: 8.27 nM
  koff: 0.000301 s⁻¹
  kon: 36400 M⁻¹ s⁻¹

B27: Hu2117HK-Mu11 (Fc fusion)
scFv: B1 scFv with V134I, F192D
notes: as for B1
[1]
  Kd: 9.41 nM
  koff: 0.000803 s⁻¹
  kon: 85400 M⁻¹ s⁻¹

B28: Hu2117HK-Mu50 (Fc fusion)
scFv: B1 scFv with A101V, V134I
notes: as for B1
[1]
  Kd: 16 nM
  koff: 0.0016 s⁻¹
  kon: 100000 M⁻¹ s⁻¹

B29: Hu2117HK-Mu09 (Fc fusion)
scFv: B1 scFv with P61G, V134I
notes: as for B1
[1]
  Kd: 6.38 nM
  koff: 0.000468 s⁻¹
  kon: 73400 M⁻¹ s⁻¹

B30: Hu2117HK-Mu21 (Fc fusion, name in Kabat numbering)
scFv: B1 scFv with V134I, N165T
notes: as for B1
[1]
  Kd: 12 nM
  koff: 0.00056 s⁻¹
  kon: 46800 M⁻¹ s⁻¹

B31: Hu2117HK-Mu25 (Fc fusion)
scFv: B1 scFv with V134I, G166S
notes: as for B1
[1]
  Kd: 6.73 nM
  koff: 0.00056 s⁻¹
  kon: 83100 M⁻¹ s⁻¹

B32: Hu2117HK-Mu27 (Fc fusion)
scFv: B1 scFv with V134I, G166R
notes: as for B1
[1]
  Kd: 7.38 nM
  koff: 0.000592 s⁻¹
  kon: 80200 M⁻¹ s⁻¹

B33: Hu2117HK-Mu32 (Fc fusion)
scFv: B1 scFv with V134I, H163S
notes: as for B1
[1]
  Kd: 6.09 nM
  koff: 0.000366 s⁻¹
  kon: 60100 M⁻¹ s⁻¹

B34: Hu2117HK-Mu38 (Fc fusion)
scFv: B1 scFv with S30N, S31N, V134I
notes: as for B1
[1]
  Kd: 12.1 nM
  koff: 0.00121 s⁻¹
  kon: 100000 M⁻¹ s⁻¹

B35: Hu2117HK-Mu42 (Fc fusion)
scFv: B1 scFv with G54S, V134I
notes: as for B1
[1]
  Kd: 33.5 nM
  koff: 0.00178 s⁻¹
  kon: 53000 M⁻¹ s⁻¹

B36: Hu2117HK-Mu10 (Fc fusion)
scFv: B1 scFv with P61V, V134I
notes: as for B1
[1]
  Kd: 7.05 nM
  koff: 0.000546 s⁻¹
  kon: 77400 M⁻¹ s⁻¹

B37: Hu2117HK-Mu06 (Fc fusion)
scFv: B1 scFv with A49S, V134I
notes: as for B1
[1]
  Kd: 8.18 nM
  kon: 82600 M⁻¹ s⁻¹

B38: Hu2117HK-Mu49 (Fc fusion)
scFv: B1 scFv with A101S, V134I
notes: as for B1
[1]
  Kd: 11.8 nM
  koff: 0.000761 s⁻¹
  kon: 64500 M⁻¹ s⁻¹

B39: Hu2117HK-Mu45 (Fc fusion)
scFv: B1 scFv with A101I, V134I
notes: as for B1
[1]
  Kd: 12.8 nM
  koff: 0.00126 s⁻¹
  kon: 98000 M⁻¹ s⁻¹

B40: Hu2117HK-Mu19 (Fc fusion, name in Kabat numbering)
scFv: B1 scFv with V134I, N165Q
notes: as for B1
[1]
  Kd: 13.9 nM
  koff: 0.000837 s⁻¹
  kon: 60100 M⁻¹ s⁻¹

B41: Hu2117HK-Mu48 (Fc fusion)
scFv: B1 scFv with A101R, V134I
notes: as for B1
[1]
  Kd: 12.1 nM
  koff: 0.00118 s⁻¹
  kon: 97900 M⁻¹ s⁻¹

B42: Hu2117HK-Mu16 (Fc fusion, name in Kabat numbering)
scFv: B1 scFv with V134I, N165G
notes: as for B1
[1]
  Kd: 8.76 nM
  koff: 0.00051 s⁻¹
  kon: 58200 M⁻¹ s⁻¹

B43: Hu2117HK-Mu35 (Fc fusion, name in Kabat numbering)
scFv: B1 scFv with V134I, S226L
notes: as for B1
[1]
  Kd: 59.8 nM
  koff: 0.0037 s⁻¹
  kon: 61900 M⁻¹ s⁻¹

B44: Hu2126-H2K1-L71-H72b-Mu10 (antibody, IgG1, V domains shown)
VH: QVQLVQSGSELKKPGASVKVSCKASGYTFTDYSMHWVRQAPGQGLEWMGWINTGTGEPTYADDFKGRFTISRDTSKSTAYLQISSLKAEDTAVYYCVRVGRYDYAMDYWGQGTTVTVSS
VL: DIQMTQSPSSLSASVGDRVTITCRASQDVYTAVAWYQQKPGKAPKLLINAASSRPTGVPSRFSGSGSGTDFTLTISSLQPEDFATYYCQQYYSTPPTFGGGTKVEIK
notes: IgG1/Cκ; also called 7172b-Mu10
[2]
  Kd: 3.38 nM
  koff: 0.000356 s⁻¹
  kon: 105000 M⁻¹ s⁻¹

B45: Hu2126-H2K1-L71-H72b-Mu11 (antibody, IgG1, V domains shown)
VH: B44 VH
VL: B44 VL with A50D
notes: IgG1/Cκ; also called 7172b-Mu11
[2]
  Kd: 5.35 nM
  koff: 0.000482 s⁻¹
  kon: 90100 M⁻¹ s⁻¹
